For assay [1], the target named is Vδ1 TCR on human Vδ1-positive γδ T cells (human), A0A1B0.
For assay [2] the target is unchanged. This is another data set of the same source.
The target is the same in assay [3]. This is another data set of the same source.
Assay [4] has the same target. The source holds these as a separate data set.
The target is the same in assay [5]. The note with it: scale: nM.

Numbering of substitutions follows the chain as printed. Where two headings read alike, the source gives them in different places.

Chain of Vδ1 TCR on human Vδ1-positive γδ T cells (human), A0A1B0 (A0A1B0 entry or part of it mutant limits assumed): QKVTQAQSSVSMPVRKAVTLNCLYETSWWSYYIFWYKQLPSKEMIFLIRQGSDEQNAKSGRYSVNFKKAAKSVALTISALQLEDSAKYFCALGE

B1: ADT1-4-2/ADT3-2 (bispecific antibody)
heavy: EVQLQQSGPGLVKPSQTLSLTCAISGDSVSSKSAAWNWIRQSPSRGLEWLGRTYYRSKWSTDYAASVKSRITINPDTSKNQLSLQLNSVTPEDTAVYYCARTWVGYVDRWGQGTLVTVSSASTKGPSVFPLAPSSKSTSGGTAALGCLVKDYFPEPVTVSWNSGALTSGVHTFPAVLQSSGLYSLSSVVTVPSSSLGTQTYICNVNHKPSNTKVDKKVEPKSCDKTHTCPPCPAPELAGAPSVFLFPPKPKDTLMISRTPEVTCVVVDVSHEDPEVKFNWYVDGVEVHNAKTKPREEQYNSTYRVVSVLTVLHQDWLNGKEYKCKVSNKALPAPIEKTISKAKGQPREPQVYTLPPSRDELEEGPVSLTCLVKGFYPSDIAVEWESTYGPENNYKTTPPVLDSDGSFFLYSKLTVSYWRWYKGNVFSCSVMHEALHNHYTQKSLSLSPG
light: DIQMTQSPPALSASVGDRVTITCRASQDINDWLAWYQHKPGKAPKLLIYDASSLESGVPLRFSGSGSGTEFTLTISSLQPDDFATYYCQQKYSAPQVTFGQGTRLEIKRTVAAPSVFIFPPSDEQLKSGTASVVCLLNNFYPREAKVQWKVDNALQSGNSQESVTEQDSKDSTYSLSSTLTLSKADYEKHKVYACEVTHQGLSSPVTKSFNRGEC
In assay [1], B1 had a Vδ1 TCR down-regulation (A375 co-culture): % change (at saturation) of 102%, a Vδ1 TCR down-regulation (A375 co-culture): EC50 of 0.00142 nM and a Vδ1 TCR down-regulation (A375 co-culture): EC95 of 0.0379 nM. In assay [2], this molecule returned a Vδ1 TCR down-regulation (A375 co-culture): % change (at EC100 saturation) of 96.8% and a Vδ1 TCR down-regulation (A375 co-culture): EC50 of 0.00095 nM.

B2: ADT1-4-2/ADT3-1 (bispecific antibody)
heavy: B1 heavy with L361T, E362D, E363D
light: B1 light
Molecule B2 came in with a Vδ1 TCR down-regulation (A375 co-culture): EC50 (read off the curve) in assay [3] of 0.01 nM. In assay [4], this molecule returned a Vδ1 TCR down-regulation (A375 co-culture): % change (at saturation) of 46%, a Vδ1 TCR down-regulation (A375 co-culture): EC95 of 0.101 nM, a Vδ1 TCR down-regulation (A431 co-culture): % change (at saturation) of 81.1% and a Vδ1 TCR down-regulation (A431 co-culture): EC95 of 0.0079 nM.

B3: ADT1-4/ADT3-1 (bispecific antibody, human IgG1)
heavy: B1 heavy with E1Q, V104S, R109V, L361T, E362D, E363D
light: ASDIQMTQSPPALSASVGDRVTITCRASQDINDWLAWYQHKPGKAPKLLIYDASSLESGVPSRFSGSGSGTEFTLTISSLQPDDFATYYCQQSYSTPQVTFGQGTRLEIKRTAAAPSVFIFPPSDEQLKSGTASVVCLLNNFYPREAKVQWKVDNALQSGNSQESVTEQDSKDSTYSLSSTLTLSKADYEKHKLYACEVTHQGLSSPVTKSFNRGEC
In assay [4], B3 registered a Vδ1 TCR down-regulation (A375 co-culture): % change (at saturation) of 34%, a Vδ1 TCR down-regulation (A375 co-culture): EC95 of 5.9 nM, a Vδ1 TCR down-regulation (A431 co-culture): % change (at saturation) of 80.3% and a Vδ1 TCR down-regulation (A431 co-culture): EC95 of 0.0263 nM.

B4: ADT1-7 (parental) (antibody, IgG1, V domains shown)
VH: QVQLVESGGGLVKPGGSLRLSCAASGFTFSDYYMSWIRQAPGKGLEWVSYISSSGSTIYYADSVKGRFTISRDNAKNSLYLQMNSLRAEDTAVYYCARVDYADAFDIWGQGTLVTVSS
VL: ASDIQMTQSPSSLSASVGDRVTIACRAGQSIGTYLNWYQQKPGKAPKLLIYVASSLQSGVPSRFSGSGSGTEFTLTISSLQPEDFATYYCQQSYSTLLTFGRGTKVEIK
Molecule B4 returned an IC50 of Vδ1 TCR downregulation (% MFI of anti-Vδ1 staining after 2 h, two γδ cell donors) in assay [5] of 22.4.

The values above are taken from patent US20240132599A1.
